In series [1] the target is T1, biotinylated-AviTag-haBiP^T229A-V461F, unmodified, ATP-bound (Chinese hamster, UniProt G3I8R9 27-635, T229A | V461F, biotin on the N-terminal Avi-tag).
T1 construct: GS linker between the avi-tag and BiP; BiP, Chinese hamster, residues 27-635; Immobilised BLI ligand; The in vitro AMPylation assay used untagged BiP^T229A-V461F (UK2521); also called BiP:ATP; unmodified BiP; source: E. coli, purified; biotinylated in vitro, made apo, then loaded with 2 mM ATP on the sensor; not shown: His6-Smt3, N-terminal, cleaved; Avi-tag (biotinylated), N-terminal, kept
T1 sequence (G3I8R9 other isoform, or with tags, fused parts or gaps T229A | V461F | T229A | V461F | T229A V461F T229A V461F): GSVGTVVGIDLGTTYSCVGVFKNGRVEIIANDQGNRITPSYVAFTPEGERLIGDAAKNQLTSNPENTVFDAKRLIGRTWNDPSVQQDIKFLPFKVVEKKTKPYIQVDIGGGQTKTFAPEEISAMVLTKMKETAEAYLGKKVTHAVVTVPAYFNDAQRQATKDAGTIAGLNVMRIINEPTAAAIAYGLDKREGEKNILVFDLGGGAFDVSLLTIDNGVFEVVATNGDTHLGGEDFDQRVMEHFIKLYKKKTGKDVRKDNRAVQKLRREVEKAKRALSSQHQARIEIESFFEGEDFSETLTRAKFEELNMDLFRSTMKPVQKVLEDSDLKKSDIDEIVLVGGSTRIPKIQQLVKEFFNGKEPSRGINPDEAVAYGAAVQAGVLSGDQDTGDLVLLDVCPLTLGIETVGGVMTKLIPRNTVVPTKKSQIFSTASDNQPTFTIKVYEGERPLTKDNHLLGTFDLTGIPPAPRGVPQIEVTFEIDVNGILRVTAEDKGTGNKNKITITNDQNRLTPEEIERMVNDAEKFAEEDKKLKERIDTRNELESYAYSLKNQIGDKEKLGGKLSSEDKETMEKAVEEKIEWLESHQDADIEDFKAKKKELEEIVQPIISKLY
Nature of the series: BLI; biotinylated Avi-tagged BiP (AMPylated or unmodified) on streptavidin biosensors, activated in 2 mM ATP; apo FICD variants (all H363A) as analytes at 50 nM unless otherwise specified; HKM with 0.05% Triton X-100, 30 °C; second dissociation step with 2 mM ATP. To be noted: both partners purified.

Series [2] addresses T2, AMPylated biotinylated-AviTag-haBiP^T229A-V461F (Chinese hamster, UniProt G3I8R9 27-635, T229A | V461F, AMP covalently attached to Thr518; biotin on the N-terminal Avi-tag).
T2 construct: GS linker between the avi-tag and BiP; BiP, Chinese hamster, residues 27-635; Immobilised BLI ligand; also called BiP-AMP; immobilised AMPylated BiP; source: E. coli, purified; AMPylated in vitro, biotinylated in vitro, made apo, then loaded with 2 mM ATP on the sensor; not shown: His6-Smt3, N-terminal, cleaved; Avi-tag (biotinylated), N-terminal, kept
Described as above. To be noted: both partners purified.

Series [3] concerns the target T3, lid-truncated BiP^T229A-V461F-AMP (residues 27-549) (Chinese hamster, UniProt G3I8R9 27-549, T229A | V461F, AMP covalently attached to Thr518 (Thr518-AMP)).
T3 construct: BiP, Chinese hamster, residues 27-549 (all of the SBD-alpha lid removed but helix A); in the expressed range hamster and human BiP are identical; also called lid-truncated BiP-AMP; AMPylated BiP; source: E. coli, purified (Ni-NTA, on-bead Ulp1 cleavage, anion exchange, gel filtration); AMPylated in vitro with GST-TEV-FICD^E234G; not shown: His6-Smt3, N-terminal, cleaved
Nature of the series: crystal structure; heterodimer of FICD^L258D-H363A and lid-truncated BiP-AMP copurified by SEC in TNKMT buffer (mixed 1.5:1 with 250 uM ATP, 50 mM KCl, 2 mM MgCl2); sitting drop at 25 °C; state 1: 0.1 M MES pH 6.5, 10% PEG 4000, 0.2 M NaCl; state 2: 0.1 M Tris pH 8.0, 25% PEG 400. To be noted: both partners purified.

In series [4] the target is T4, BiP^T229A-V461F-AMP (residues 27-635) (Chinese hamster, UniProt G3I8R9 27-635, T229A | V461F, AMP covalently attached to Thr518).
T4 construct: BiP, Chinese hamster, residues 27-635 ('full-length': complete structured region; lacks the acidic N-terminal region and the C-terminal region with KDEL); The deAMPylation assays used BiP^T229A-V461F (UK2521) AMPylated in vitro, with a trace of AMP(FAM)-labelled probe; also called full-length BiP-AMP; full-length AMPylated BiP; source: E. coli, purified; AMPylated in vitro with …
T4 sequence (G3I8R9 27-635 T229A/V461F): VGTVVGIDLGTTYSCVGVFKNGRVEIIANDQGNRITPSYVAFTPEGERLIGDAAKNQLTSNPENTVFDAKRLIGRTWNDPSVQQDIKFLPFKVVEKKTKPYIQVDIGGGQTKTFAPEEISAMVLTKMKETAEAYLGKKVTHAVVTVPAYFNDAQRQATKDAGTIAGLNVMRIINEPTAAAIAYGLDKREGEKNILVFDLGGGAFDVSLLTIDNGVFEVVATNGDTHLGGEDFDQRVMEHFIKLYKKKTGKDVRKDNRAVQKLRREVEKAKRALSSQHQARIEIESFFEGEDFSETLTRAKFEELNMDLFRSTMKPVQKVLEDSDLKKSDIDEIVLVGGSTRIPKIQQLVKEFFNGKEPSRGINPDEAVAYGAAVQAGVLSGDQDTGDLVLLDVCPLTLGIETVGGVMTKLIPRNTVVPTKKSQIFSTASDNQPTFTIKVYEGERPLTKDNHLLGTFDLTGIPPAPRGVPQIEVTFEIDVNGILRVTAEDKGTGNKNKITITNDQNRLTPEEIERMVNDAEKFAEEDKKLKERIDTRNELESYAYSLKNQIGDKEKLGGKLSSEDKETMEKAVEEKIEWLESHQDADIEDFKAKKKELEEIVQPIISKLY
Nature of the series: contrast variation small angle neutron scattering (SANS); complexes of partially deuterated and non-deuterated dimeric FICD^H363A and full-length BiP-AMP copurified by SEC (1.25:1 BiP-AMP:FICD, 250 uM ATP) into TNKMT(0.2) buffers of varying D2O content; 4.3-5.5 mg/ml, 12 °C. The settings on record: both partners purified.

Series [5] concerns the molecule itself. The series is described as above.

T2 sequence (G3I8R9 other isoform, or with tags, fused parts or gaps T229A | V461F | T229A | V461F | T229A V461F T229A V461F): as the sequence (G3I8R9 other isoform, or with tags, fused parts or gaps T229A | V461F | T229A | V461F | T229A V461F T229A V461F) above
T3 sequence (G3I8R9 27-549 T229A/V461F): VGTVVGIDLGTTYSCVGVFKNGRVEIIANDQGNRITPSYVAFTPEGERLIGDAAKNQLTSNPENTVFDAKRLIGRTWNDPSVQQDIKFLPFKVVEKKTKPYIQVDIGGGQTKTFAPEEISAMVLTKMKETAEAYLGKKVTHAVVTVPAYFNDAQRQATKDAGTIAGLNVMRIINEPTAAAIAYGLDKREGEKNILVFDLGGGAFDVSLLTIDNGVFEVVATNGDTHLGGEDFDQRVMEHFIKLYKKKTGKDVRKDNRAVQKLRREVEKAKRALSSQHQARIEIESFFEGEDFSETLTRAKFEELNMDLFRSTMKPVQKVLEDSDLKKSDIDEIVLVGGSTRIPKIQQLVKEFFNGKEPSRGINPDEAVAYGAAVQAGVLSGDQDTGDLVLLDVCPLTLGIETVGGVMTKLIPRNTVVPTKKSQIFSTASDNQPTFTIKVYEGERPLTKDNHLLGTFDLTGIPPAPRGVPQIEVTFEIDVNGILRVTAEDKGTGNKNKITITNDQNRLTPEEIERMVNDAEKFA

B1: FICD^L258D-H363A (residues 104-445) (enzyme, human, UniProt Q9BVA6 104-445, looked up)
chain: LEARAALNQALEMKRQGKREKAQKLFMHALKMDPDFVDALTEFGIFSEEDKDIIQADYLYTRALTISPYHEKALVNRDRTLPLVEEIDQRYFSIIDSKVKKVMSIPKGNSALRRVMEETYYHHIYHTVAIEGNTLTLSEIRHILETRYAVPGKSDEEQNEVIGMHAAMKYINTTLVSRIGSVTISDVLEIHRRVLGYVDPVEAGRFRTTQVLVGHHIPPHPQDVEKQMQEFVQWLNSEEAMNLHPVEFAALAHYKLVYIAPFIDGNGRTSRLLMNLILMQAGYPPITIRKEQRSDYYHVLEAANEGDVRPFIRFIAKCTETTLDTLLFATTEYSVALPEAQP
notes: FICD, human, residues 104-445 (only the predicted structured regions were expressed); Used in the crystal structures and as BLI analyte; also called monomeric FICD^L258D-H363A; monomeric FICD; source: E. coli (T7 Express lysY/Iq or M15), purified (Ni-NTA, on-bead Ulp1 cleavage, anion exchange, gel filtration); not shown: His6-Smt3, N-terminal, cleaved
In the case of B1, the binding result in series [1], in series [2] and in series [3] was “binds” each time.

B2: FICD^H363A (residues 104-445) (enzyme, human, UniProt Q9BVA6 104-445, looked up)
chain: LEARAALNQALEMKRQGKREKAQKLFMHALKMDPDFVDALTEFGIFSEEDKDIIQADYLYTRALTISPYHEKALVNRDRTLPLVEEIDQRYFSIIDSKVKKVMSIPKGNSALRRVMEETYYHHIYHTVAIEGNTLTLSEIRHILETRYAVPGKSLEEQNEVIGMHAAMKYINTTLVSRIGSVTISDVLEIHRRVLGYVDPVEAGRFRTTQVLVGHHIPPHPQDVEKQMQEFVQWLNSEEAMNLHPVEFAALAHYKLVYIAPFIDGNGRTSRLLMNLILMQAGYPPITIRKEQRSDYYHVLEAANEGDVRPFIRFIAKCTETTLDTLLFATTEYSVALPEAQP
notes: FICD, human, residues 104-445; Used non-deuterated and partially deuterated in SANS, and as BLI analyte; also called dimeric FICD^H363A; dimeric FICD; source: E. coli, purified (Ni-NTA, on-bead Ulp1 cleavage, anion exchange, gel filtration); matchout-deuterated form from E. coli BL21 Star (DE3) in 85% deuterated medium, purified; not shown: His6-Smt3, N-terminal, cleaved
On to B2, for which the “stoichiometry N” value in series [4] was 1 FICD per BiP-AMP (2:2). Further, the binding result in series [5] is on record as “binds”.

B3: TPR domain oxidised monomeric FICD^D160C-T183C-L258D-H363A-C421S (enzyme, human, UniProt Q9BVA6 104-445, looked up)
chain: LEARAALNQALEMKRQGKREKAQKLFMHALKMDPDFVDALTEFGIFSEEDKDIIQACYLYTRALTISPYHEKALVNRDRCLPLVEEIDQRYFSIIDSKVKKVMSIPKGNSALRRVMEETYYHHIYHTVAIEGNTLTLSEIRHILETRYAVPGKSDEEQNEVIGMHAAMKYINTTLVSRIGSVTISDVLEIHRRVLGYVDPVEAGRFRTTQVLVGHHIPPHPQDVEKQMQEFVQWLNSEEAMNLHPVEFAALAHYKLVYIAPFIDGNGRTSRLLMNLILMQAGYPPITIRKEQRSDYYHVLEAANEGDVRPFIRFIAKSTETTLDTLLFATTEYSVALPEAQP
modifications: intramolecular disulphide bond between Cys160 and Cys183 (TPRox)
notes: FICD, human, residues 104-445, FICD^D160C-T183C-C421S derivative of FICD^L258D-H363A; also called TPRox (monomeric); FICD(TPRox); source: E. coli, purified; oxidised with CuSO4 and 1,10-phenanthroline, further anion exchange and gel filtration; not shown: His6-Smt3, N-terminal, cleaved
For B3, the binding result in series [1] and in series [2] was “binds” in each case.

B4: TPR domain oxidised dimeric FICD^D160C-T183C-H363A-C421S (enzyme, human, UniProt Q9BVA6 104-445, looked up)
chain: LEARAALNQALEMKRQGKREKAQKLFMHALKMDPDFVDALTEFGIFSEEDKDIIQACYLYTRALTISPYHEKALVNRDRCLPLVEEIDQRYFSIIDSKVKKVMSIPKGNSALRRVMEETYYHHIYHTVAIEGNTLTLSEIRHILETRYAVPGKSLEEQNEVIGMHAAMKYINTTLVSRIGSVTISDVLEIHRRVLGYVDPVEAGRFRTTQVLVGHHIPPHPQDVEKQMQEFVQWLNSEEAMNLHPVEFAALAHYKLVYIAPFIDGNGRTSRLLMNLILMQAGYPPITIRKEQRSDYYHVLEAANEGDVRPFIRFIAKSTETTLDTLLFATTEYSVALPEAQP
modifications: intramolecular disulphide bond between Cys160 and Cys183 (TPRox)
notes: FICD, human, residues 104-445, FICD^D160C-T183C-C421S derivative of FICD^H363A; also called TPRox (dimeric); FICD(TPRox); source: E. coli, purified; oxidised with CuSO4 and 1,10-phenanthroline, further anion exchange and gel filtration; not shown: His6-Smt3, N-terminal, cleaved
As for B4, in series [2], the binding result is “binds”.

These data come from article doi:10.1101/2021.04.20.440599, “Structures of a deAMPylation complex rationalise the switch between antagonistic catalytic activities of FICD (14/96/109)” (bioRxiv, 2021).
